Source: publication PMC2150824 (The Journal of Cell Biology, 2001)
Values belong to the binder of their own block, whether it stands above or below them.

How the values were obtained:
[1] = molecular target: the molecule itself; assay: SEC
[2] = molecular target: F-actin (rabbit skeletal muscle actin) (rabbit, UniProt P68135 1-377); assay: co-sedimentation

B1: endogenous Hip1R stripped from CCVs with 0.5 M Tris-HCl (natural protein, UniProt Q9JKY5 1-1068, looked up)
chain: MNSIKNVPARVLSRRPGHSLEAEREQFDKTQAISISKAINSQEAPVKEKHARRIILGTHHEKGAFTFWSYAIGLPLSSSSILSWKFCHVLHKVLRDGHPNVLHDYQRYRSNIREIGDLWGHLRDQYGHLVNIYTKLLLTKISFHLKHPQFPAGLEVTDEVLEKAAGTDVNNIFQLTVEMFDYMDCELKLSESVFRQLNTAIAVSQMSSGQCRLAPLIQVIQDCSHLYHYTVKLMFKLHSCLPADTLQGHRDRFHEQFHSLKNFFRRASDMLYFKRLIQIPRLPEGPPNFLRASALAEHIKPVVVIPEEAPEEEEPENLIEISSAPPAGEPVVVADLFDQTFGPPNGSMKDDRDLQIENLKREVETLRAELEKIKMEAQRYISQLKGQVNGLEAELEEQRKQKQKALVDNEQLRHELAQLKALQLEGARNQGLREEAERKASATEARYSKLKEKHSELINTHAELLRKNADTAKQLTVTQQSQEEVARVKEQLAFQMEQAKRESEMKMEEQSDQLEKLKRELAARAGELARAQEALSRTEQSGSELSSRLDTLNAEKEALSGVVRQREAELLAAQSLVREKEEALSQEQQRSSQEKGELRGQLAEKESQEQGLRQKLLDEQLAVLRSAAAEAEAILQDAVSKLDDPLHLRCTSSPDYLVSRAQAALDSVSGLEQGHTQYLASSEDASALVAALTRFSHLAADTIVNGAATSHLAPTDPADRLMDTCRECGARALELVGQLQDQTVLPRAQPSLMRAPLQGILQLGQDLKPKSLDVRQEELGAMVDKEMAATSAAIEDAVRRIEDMMSQARHESSGVKLEVNERILNSCTDLMKAIRLLVMTSTSLQKEIVESGRGAATQQEFYAKNSRWTEGLISASKAVGWGATQLVESADKVVLHMGKYEELIVCSHEIAASTAQLVAASKVKANKNSPHLSRLQECSRTVNERAANVVASTKSGQEQIEDRDTMDFSGLSLIKLKKQEMETQVRVLELEKTLEAERVRLGELRKQHYVLAGGMGTPSEEEPSRPSPAPRSGATKKPPLAQKPSIAPRTDNQLDKKDGVYPAQLVNY
stoichiometry N [1]: 2

binding result [2]: binds
B2: yeast coronin (natural protein)
chain: MSGKFVRASKYRHVFGQAAKKELQYEKLKVTNNAWDSNLLKTNGKFIAVNWNASGGGAFAVIPIEEVGKAPDQVPLFRGHTAQVLDTDFDPFNDHRIASGSDDSKIGIWDIPENYKFHDHVDEDGEPIDIKPVKFLTGHARKVGHVLYHPVAENVLASSSGDYTVKLWNVETGKDMITLKHPDMVTSMSFSYDGNYLATVARDKKLRVWNIREEKIVSEGPAHTGAKNQRVVWLGNSDRLATTGFSKLSDRQIGIWDAFNIEKGDLGGFYTVDQSSGILMPFYDEGNKILYLVGKGDGNIRYYEFQNDELFELSEFQSTEAQRGFAVAPKRMVNVKENEVLKGFKTVVDQRIEPVSFFVPRRSEEFQEDIYPDAPSNKPALTAEEWFSGKSVEGPILVSMRSIYDGSAPSFHEAKRPQQPTTQETALEEKKEQPKVEKPISESEKEVKQEAPKSPSPLKSASSSSTINHVLKEDNSINKLLKKSSDIDQVNNAEDPSRDTSGWEEADDEPAPIKIETPVTPTETKKDRTPKVEPSKELKPEPVSIATDRKQEQSLPQEEKSSEKTKSPEQEKSATPPSSITAAKTAITASSKEEPSAARTSPKSLGLKKSVEKLSTLVLQLEDVVDKLTKANLDKDERLLKLEQKIGELSK
